Changes are numbered by the printed parent chain.

Here are results for six molecules from patent US20170240633A1 (published 2017).

Sequences and labels used below:
B1: anti-TIM-3 antibody clone B10 (antibody, V domains shown)
VH: QVQLQESGPGLVKASETLSLTCTVSGGSIGSSDYYWGWIRQPPGKGLEWIGSIYYSGSTYYNPSLKSRVTMSVDTPNNQFSLKLSSVTAADTAVYYCARGEHRGEFDYWGQGTLVTVSS
VL: EIVLTQSPATLSFSPGERATLSCRASQSVGSYLAWYQQRPGQAPRPLIYDATNRATGIPTRFSGSGSGTDFTLTISSLEPEDFATYYCQHRRTFGRGTKLEIK
notes: ELISA and SPR are described for Fab; The format in each assay is not clearly stated
B2: anti-TIM-3 antibody clone G7 (antibody, V domains shown)
VH: EVQLVQSGAEVKKPGASVKVSCKASGYTFTSYYMHWVRQAPGQGLEWMGIINPSGGSTSYAQKFQGRVTMTRDTSTSTVYMELSSLRSEDTAVYYCARDQYSSGWYYYGMDVWGQGTTVTVSS
VL: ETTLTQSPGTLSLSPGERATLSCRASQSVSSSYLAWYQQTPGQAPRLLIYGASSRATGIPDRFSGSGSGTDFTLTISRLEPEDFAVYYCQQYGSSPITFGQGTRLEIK
notes: as for B1
B3: anti-TIM-3 antibody clone G9 (antibody, V domains shown)
VH: B2 VH with E1Q, V5Q, Q100L, S103Y, W105F
VL: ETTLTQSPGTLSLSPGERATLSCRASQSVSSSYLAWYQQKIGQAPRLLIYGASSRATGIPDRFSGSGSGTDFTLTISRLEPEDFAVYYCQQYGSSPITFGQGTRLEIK
notes: as for B1
B4: anti-TIM-3 antibody clone G6 (antibody, V domains shown)
VH: QVQLQESGPGLVKPSGTLSLTCAVSGGSISSSNWWSWVRQPPGKGLEWIGEIYHSGSTNYNPSLKSRVTISVDKSKNQFSLKLSSVTAADTAVYYCARVVAVAGTVDYWGQGTLVTVSS
VL: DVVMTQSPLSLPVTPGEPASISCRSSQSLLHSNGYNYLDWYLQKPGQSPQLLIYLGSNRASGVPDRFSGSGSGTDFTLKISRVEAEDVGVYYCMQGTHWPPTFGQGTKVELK
notes: as for B1
B5: anti-TIM-3 antibody clone A3 (antibody, V domains shown)
VH: QVQLVQSGAEVKKPGASVKVSCKASGYTFTSYYMHWVRQAPGQGLEWMGIINPSGGSTSYAQKFQGRVTMTRDTSTSTVYMELSSLRSEDTAVYYCARSPGVVTALFDYWGQGTLVTVSS
VL: DIQMTQSPSFMSASVGDRVTITCRASQDIGSYLAWYQQKPGKAPKLLIYAASTLQSGVPSRFSGSGSGTDFTLTINSLQPEDFATYYCQQSYSSPPTFGPGTTLEIK
notes: From a human phage display library; ELISA screening used Fab-containing supernatants and SPR speaks of 'each candidate Fab'; The format in each assay is not clearly stated
B6: anti-TIM-3 antibody clone A11 (antibody, V domains shown)
VH: QVQLQQWGAGLLKPSETLSLTCAVYGGSFSGYYWSWIRQPPGKGLEWIGEINHSGSTNYNPSLKSRVTISVDTSKNQFSLKLSSVTAADTAVYYCARGYVAGFDYWGQGTLVTVSS
VL: QSVVTQPPSVSAAPGQKVTISCSGSSSNIGNNYVSWYQQLPGTAPKLLIYGNNWRPSGIPDRFSGSKSGTSATLAISGLQTGDEADYYCETWDSSLSAGVFGGGTKLTVL
notes: as for B1

In this assay the target is T1, human TIM-3 coupled to human Fc (human, UniProt Q8TDQ0 22-200, limits assumed).
T1 construct: Antigen coated on ELISA plates and immobilised on the SPR chip; not shown: human Fc
Kind of assay: ELISA on plate-coated human TIM-3 coupled to human Fc. A general note: An ELISA detects its analyte on a solid surface through an enzyme-linked reagent.
In the case of B1, the binding result is reported as “binds”.
In the case of B2, the binding result is listed as “binds”.
As to B3, the binding result was “binds”.
In the case of B4 it was “binds”.
Regarding B5, the binding result is recorded as “binds”.
For B6 the value was “binds”.
